B1: TPR t1 (parent)
chain: GACCAAUCUGCCCUCAGAGCUCGAGAACAUCUUCGGAUGCAGAGGAGGCAGGCUUCGGUGGCGCGAUAGCGCCAACGUCCUCAACCUCCAAUGCAUCCCACCACAUGAUGAUGCCUGAAGAGCCUUGGUUUUUUG

The results in this text go back to the RNAGym collection of RNA variant scans (doi:10.1073/pnas.2313332121).

This data set covers variants of B1. Nature of the data set: polymerase ribozyme fitness, log enrichment relative to wild type (log ratio); higher = more active; in vitro selection for triplet polymerase activity. An outline of the steps: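 Input and output libraries were sequenced on Illumina after a single in vitro selection round, run in triplicate on PCR-built, transcribed mutant libraries of each subunit of a heterodimeric triplet polymerase ribozyme. Selection annealed libraries to a biotinylated primer, the partner subunit and triplets, incubated them frozen at −7 °C, then gel-excised extended constructs for streptavidin-bead capture and RT-PCR. Genotypes with ≥10 input reads and ≥1 read per output were kept. Fitness is the logarithm, taken in base 2, of genotype enrichment divided by wild-type enrichment, using inverse-variance-weighted replicate averages.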
In the case of A6U C13U G61C U112A, the “polymerase ribozyme fitness (log ratio)” value is -1.1.
The value for U7A A66G C73G C124A was 0.101.
For A6U C11U C22U A41C the value was -5.83; for A6U C53G C114A U131C, -1.89; for A6G C123A, 1.64.
The value for A6U A43C A50G G61A C115A U116C was -4.89; that for A6G C11A U92G was -4.04; that for U7A A84C U116C was -0.218.
In the case of A6U U30C G39U C97U C104U, the “polymerase ribozyme fitness (log ratio)” value is -4.
For A6G C70U, the “polymerase ribozyme fitness (log ratio)” value is -1.29.
As for A6U G57C G69A A90G, the “polymerase ribozyme fitness (log ratio)” value was -2.65.
For A6U C8A G71U C101G the value was -1.45; for U7A C40U U54A C56A C73A G77U G117A G122A, -3.15.
As for A6U G61A, the “polymerase ribozyme fitness (log ratio)” value was -0.0423.
The value for A6U G48C C102U U131C was -1.55.
The value for A6U U54C C72U was 0.695; that for A6U A29U A66C C115G G117U was -6.19.
Turning to A6U A29G G61U C89A A121G, the “polymerase ribozyme fitness (log ratio)” value is -0.882.
As to A6G U9C C13G C89U A90U C94U A105U A121G, the “polymerase ribozyme fitness (log ratio)” value was -2.84.
In the case of U7A C20G G25C C34G A43C G52A G113C, the “polymerase ribozyme fitness (log ratio)” value is -7.56.
Consider A6U C8G C13A G19U G61C G93C G120C, for which the “polymerase ribozyme fitness (log ratio)” value was -5.97.
Regarding A6U A46C, the “polymerase ribozyme fitness (log ratio)” value was -0.0914.
As to A6G U14G C28U G110C C115U U125A, the “polymerase ribozyme fitness (log ratio)” value is -6.22.
For the variant A6U A74C, the “polymerase ribozyme fitness (log ratio)” value stood at 0.0283.
The value for A6U A74U was 0.241.
For A6G C12U C22U A50G C56A the value was -4.54.
Regarding U7A C12G A18G G44A G52U, the “polymerase ribozyme fitness (log ratio)” value was -5.51.
On to U7A A37U C70G U78A, for which the “polymerase ribozyme fitness (log ratio)” value is -3.04.
With A6U G52A U116C, the “polymerase ribozyme fitness (log ratio)” value is -1.36.
As to A6U G44U G61A A103U G122A C124G U125G, the “polymerase ribozyme fitness (log ratio)” value was -4.72.
The value for A6G C11U C98A was -5.05; that for A6U C79A G110A was -2.78; that for A6U C11U G47C C85U C114A was -4.43.
For A6U G48U C89A A105U, the “polymerase ribozyme fitness (log ratio)” value is -6.02.
Take A6G C72U U112G: the “polymerase ribozyme fitness (log ratio)” value amounted to 0.809.
The value for A6U G48C U54A C89A C97U was -3.1; that for U7A A50U was -0.856; that for A6U C11U C80U C102U was -3.5.
As to A6U C53A C62A C97U G113A, the “polymerase ribozyme fitness (log ratio)” value is -3.13.
As to A6U G107U, the “polymerase ribozyme fitness (log ratio)” value was -3.94.
For A6U A50G G117A the value was -1.14; for A6G G48U, -0.663; for A6G G10C U112A, -0.0126.
With A6G A91C, the “polymerase ribozyme fitness (log ratio)” value is -1.54.
The value for A6G C102A C124A U130A was 0.13.
Consider A6U C11G G48U C82G C85U, for which the “polymerase ribozyme fitness (log ratio)” value was -0.874.
The value for A6U G10A was 0.406.
The value for A6U G10C was -0.4; that for A6U C72G C73U A90U C98G C102U A108U C123G was -7.4; that for A6G C98U U106A C124A was 1.28.
Turning to A6U G48U G93A G110U, the “polymerase ribozyme fitness (log ratio)” value is -2.34.
The value for A6G G39U G69U A119U was -0.0303.
On to U7A C13U C15U G44U G77U, for which the “polymerase ribozyme fitness (log ratio)” value is -2.35.
On to A6U C12G G45C, for which the “polymerase ribozyme fitness (log ratio)” value was -1.57.
In the case of A6U C13G G69U C88U C97U G117C C124G U132A, the “polymerase ribozyme fitness (log ratio)” value was -1.66.
The value for A6U G60U was -0.858.
As to A6U C31G G47A G61A A91U U112A, the “polymerase ribozyme fitness (log ratio)” value was -7.45.
The value for A6U C56A A105G was -2.46.
For the variant A6G G45U C73U C98U A111G U125A, the “polymerase ribozyme fitness (log ratio)” value is -5.29.
For A6U G39A C88A the value was -1.23.
The value for A6U C12A was 0.811; that for A6U C12U was -0.0768; that for A6U C8G G17A G48C C53A U126C was -4.16.
For the variant A6U A37C, the “polymerase ribozyme fitness (log ratio)” value is -0.207.
For A6U A37U the value was -0.0542.
Consider A6U A18U G60U U112C, for which the “polymerase ribozyme fitness (log ratio)” value is -0.222.
For A6U G51C A74U G113A C123G, the “polymerase ribozyme fitness (log ratio)” value was -4.2.
For A6U G45C C101U G110C the value was -5.31.
As for A6G C62U G110C, the “polymerase ribozyme fitness (log ratio)” value was -4.63.
A6U C8G G60A U130C: the “polymerase ribozyme fitness (log ratio)” value is -0.0856.
The value for A6U C8G G60A C72A U130C was -0.0324; that for A6U U109C C124A was -5.26; that for A6G C73A U112A G120U U130G was 0.876.
For A6U C11U G71C the value was -0.83; for A6U C53A C97U G113A, -1.91.
For A6U A46U C72A U96A G120A G128A the value was -2.92; for A6U G45A A50U G113C, -5.5; for U7A C34A C53A, -2.31.
In the case of A6G A50G U112C, the “polymerase ribozyme fitness (log ratio)” value turned out to be 1.56.
As for U7A A37U G71U A95G U96A, the “polymerase ribozyme fitness (log ratio)” value is -0.194.
Regarding A6U G42U U87A C94A C123G, the “polymerase ribozyme fitness (log ratio)” value was -1.12.
The value for U7A C22G C40U G42U C62G was -6.04; that for A6U C11U G47A A118U was -1.52.
